Measurements: patent publication US10131920B2, “Nucleic acid molecules” (MEDIMMUNE LIMITED, priority 2013, dated 2018)
Changes are numbered by the printed parent chain. Numbers in names are those of the source.

B1: B tRNA: tRNApyl Methanosarcina mazei with A52C mutation (B-box) (nucleic acid)
DNA: GGAAACCTGATCATGTAGATCGAATGGACTCTAAATCCGTTCAGCCGGGTTCGATTCCCGGGGTTTCCG
modifications: expressed or natural sequence
B2: H1-tRNA: WT tRNApyl under control of the H1 promoter, positive control (nucleic acid)
DNA: AATATTTGCATGTCGCTATGTGTTCTGGGAAATCACCATAAACGTGAAATCCCTATCAGTGATAGAGACTTATAAGTTCCCTATCAGTGATAGAGACACCAGGAAACCTGATCATGTAGATCGAATGGACTCTAAATCCGTTCAGCCGGGTTAGATTCCCGGGGTTTCCGGACAAGTGCGGTTTTTTT
modifications: Synthetic sequence H1 tRNA-WT construct
B3: WT tRNA: wild type tRNApyl gene of Methanosarcina mazei without extragenic promoter (nucleic acid, listed as Methanosarcina mazei)
DNA: B1 DNA with C52A
modifications: expressed or natural sequence
notes: wild type tRNApyl gene of Methanosarcina mazei without extragenic promoter
B4: 7SL WT tRNA: WT tRNApyl downstream of the 7SL promoter 5′ region (nucleic acid)
DNA: CCCAGTTGATGACGTCACCATACCACAGCTTCTAGTGCTATTCTGCGCCGGTATCCGACCACCAGGAAACCTGATCATGTAGATCGAATGGACTCTAAATCCGTTCAGCCGGGTTAGATTCCCGGGGTTTCCGGACAAGTGCGGTTTTT
modifications: Synthetic sequence 7SL tRNA-WT construct
notes: WT tRNApyl downstream of the 7SL promoter 5′ region
B5: 3×Glu: three tandem repeats of the murine tRNA glu and pyltRNA bicistronic pair (nucleic acid)
DNA: GCCGTGACCTCGGGCCGACGCTCCCTGGTGGTCTAGTGGTTAGGATTCGGCGCTCTCACCGCCGCGGCCCGGGTTCGATTCTCGGTCAGGGAAGCCTCTCCCCCAAACCTCGGAAACCTGATCATGTAGATCGAATGGACTCTAAATCCGTTCAGCCGGGTTAGATTCCCGGGGTTTCCGCTTCTTCCTCTTTTCTGCACCCTCACTTCAGCTGAGCCGTGACCTCGGGCCGACGCTCCCTGGTGGTCTAGTGGTTAGGATTCGGCGCTCTCACCGCCGCGGCCCGGGTTCGATTCTCGGTCAGGGAAGCCTCTCCCCCAAACCTCGGAAACCTGATCATGTAGATCGAATGGACTCTAAATCCGTTCAGCCGGGTTAGATTCCCGGGGTTTCCGCTTCTTCCTCTTTTCTGCACCCCAATATTGCCGTGACCTCGGGCCGACGCTCCCTGGTGGTCTAGTGGTTAGGATTCGGCGCTCTCACCGCCGCGGCCCGGGTTCGATTCTCGGTCAGGGAAGCCTCTCCCCCAAACCTCGGAAACCTGATCATGTAGATCGAATGGACTCTAAATCCGTTCAGCCGGGTTAGATTCCCGGGGTTTCCGTAGCGTCCTTTTTGGAAAGACAAGTGGGTGGCGAATTCGATATC
modifications: Synthetic sequence 3x tRNAglu-pyl DNA construct including 3 repeats of the bicistronic construct tRNAglu-tRNApyl
notes: three tandem repeats of the murine tRNA glu and pyltRNA bicistronic pair
B6: 2×Asp: two tandem repeats of the murine tRNA asp-pyl tRNA bicistronic pair (nucleic acid)
DNA: TCCTCGTTAGTATAGTGGTGAGTATCCCCGCCTGTCACCCGCGAGACCGGCGTTCCATTCCCCGACGGGGAGACGTAGCCCCACCTCGGAAACCTGATCATGTAGATCGAATGGACTCTAAATCCGTTCAGCCGGGTTAGATTCCCGGGGTTTCCGTAGCGTCCTTTTTGGAAAGACAAGGTGCGTCGTAGTCGGCGTTGTCCTCGTTAGTATAGTGGTGAGTATCCCCGCCTGTCACCCGCGAGACCGGCGTTCCATTCCCCGACGGGGAGACGTAGCCCCACCTCGGAAACCTGATCATGTAGATCGAATGGACTCTAAATCCGTTCAGCCGGGTTAGATTCCCGGGGTTTCCGTAGCGTCCTTTTT
modifications: Synthetic sequence 2x tRNAasp-pyl DNA construct including 2 repeats of the bicistronic construct tRNAasp-pyl
notes: two tandem repeats of the murine tRNA asp-pyl tRNA bicistronic pair

Assays:
[1] = test system: GFPY40 reporter (GFP containing an amber codon) in HEK293 cells stably expressing pylRS; assay: Amber suppression-dependent GFP expression (GFPY40 reporter), transient transfection, flow cytometry; type: cell-based; settings: for GFP MFI, FIG. 9: 1 ug GFPY40 reporter and 1 ug tRNA expression plasmid; for GFP MFI, single copy tRNA, FIG. 7 / GFP MFI, tandem copies of tRNA, FIG. 7: cells expressing WTpylRS, after two days; for GFP MFI, tandem copies of tRNA, FIG. 7: single vector containing two copies in tandem; for GFP MFI, FIG. 10: cells stably expressing WTpylRS, lys azide; for GFP MFI, FIG. 8: 1 ug PCR product of each construct, lys azide nnAA
Protocol: (§1) To assess the function of the tRNA variants, an in vitro assay was established where cells are transiently transfected with a tRNA construct and a reporter construct encoding GFP containing an amber codon interrupting its reading frame (GFPY40). HEK293 cells stably expressing pylRS were transiently transfected with various tRNA constructs (1 ug) and the GFPY40 reporter (1 ug). In the absence of elements that support amber suppression, a truncated GFP protein is generated and the cell is not fluorescent. However, the introduction of a functional tRNA and the presence of a nnAA that supports amber suppression allows for the production of full length GFP resulting in fluorescent cells. The level of GFP expression reflects the efficiency of amber suppression and is quantified by flow cytometry. tRNA genes encoding wild type tRNApyl (WT tRNA), or containing mutations in the B-box (B tRNA—SEQ ID No 9), in both the A and B box (A2B tRNA—SEQ ID No 10), or in the A box (A1 tRNA-SEQ ID No 7; or A2 tRNA SEQ ID No 11), all under control of the H1 promoter were generated by site directed mutagenesis and assayed. The H1 promoter ensured that the variants were expressed and allowed us to examine the functional effects of the mutations introduced into the tRNA genes. In addition a sample transfected with GFPY40 alone was generated to establish background GFP levels. The transfected cells were grown in presence of the aminoacid analogue lys azide (2 mM) and incubated for 18 hours. GFP fluorescence was then assayed by flow cytometry and mean fluorescence intensity determined for each sample. Data were analysed with FCS Express and the mean fluorescence intensity of each sample determined using markers that constrain the data set to cells showing fluorescence above negative controls.
To begin to assess whether the tRNA mutations can support expression of the tRNA we assayed tRNA constructs encoding the wild type tRNA in the absence of the H1 promoter. Constructs encoding wild type tRNApyl (WT tRNA) or containing mutations in the B-box (B tRNA—SEQ ID No 9) or in both the A and B box (A2B; A2B tRNA—SEQ ID No 10) were assayed using our in vitro amber suppression assay described above. WT tRNA under control of the H1 promoter (H1-tRNA) was used as a positive control, and in addition one sample was transfected only with the GFPY40 reporter to illustrate background amber suppression in the absence of tRNA. The transfected cells were exposed to 2 mM lys-azide nnAA and cells incubated for three days. GFP expression was examined by flow cytometry and mean fluorescence intensity determined.
Two copies of the WT, B, or A2B tRNA were cloned in tandem to generate a single vector containing two copies of WT, B, or A2B tRNA. To assess the effect of increased gene doses by these constructs, cells expressing WTpylRS were transiently transfected with the tRNA constructs and the GFPY40 reporter construct and GFP expression assayed after two days.
The activity of each construct was assessed by transient transfection into cells stably expressing WT pylRS with the GFPY40 reporter as described above. For this experiment, 1 ug of a PCR product encoding each of the indicated constructs was used. In each case, cells were exposed to the lys azide nnAA for three days and GFP levels assayed by flow cytometry. Mean fluorescence intensities were determined for each sample and plotted (FIG. 8).

[2] = test system: GFPY40 reporter in 3H7 cells; assay: Amber suppression-dependent GFP expression (GFPY40 reporter), transient transfection of 3H7 cells, flow cytometry; type: cell-based; settings: three days; for GFP MFI in the absence of nnAA, FIG. 6: no nnAA; for GFP MFI, FIG. 11: 1 ug GFPY40 and 1 ug tRNA expression vector, lys-azide
Protocol: as §1, with “controls. […] The constructs thus are functional and may contain the necessary genetic sequence to enable the expression of the tRNA also in the absence of an upstream promoter element such as the H1 promoter.” for “controls.”
Having established that the B mutation introduced into the pyltRNA sequence enabled expression of the tRNA that supported amber suppression we then asked whether this mutation affected the orthogonality of the tRNA and led to the incorporation of natural amino acids. To do this 3H7 cells were transiently transfected with expression constructs encoding WT-tRNA, B-tRNA, H1-tRNA and H1-B tRNA along with the GFPY40 reporter. Transfected cells were grown in the presence of 2 mM lys azide or absence of nnAA as indicated (FIG. 6), and GFP expression assessed by flow cytometry after three days. In addition, a sample transfected only with GFPY40 was examined to determine background amber suppression levels in the absence of tRNA. […] A comparison of GFP expression between the WT tRNA (MFI 33,781) and tRNA B (232,505) lacking extragenic promoter elements confirms that the B mutation generates a functional intragenic promoter. Indeed, the B tRNA construct enabled a seven-fold increase in the level of amber suppression dependent expression of GFP over WT tRNA.
We also tested the utility of a bicistronic tRNA expression construct for its ability to express tRNApyl. Here, the murine tRNA Glu and tRNA Asp were utilized. In each case, multiple repeats of the constructs were generated to increase activity (3×Glu-pyl and 2×Asp-pyl). Here, 3H7 cells were transiently transfected with 1 ug of the reporter construct GFPY40 and 1 ug of the indicated tRNA expression vectors (FIG. 11) and incubated with lys-azide for three days. Data were collected by flow cytometry and mean fluorescence intensities for each sample were plotted. […] The construct consisting of the 7SL WT tRNA (MFI=312) was included as a metric for low efficiency. In addition cell lines containing only the GFPY40 reporter were used as negative controls (MFI=0).

[3] = 2 mM lys-azide nnAA, three days

Row | Molecule | GFP MFI, FIG. 9 [1] | GFP mean fluorescence intensity (MFI), FIG. 5 [1, 3] | fold higher expression of GFP than the wt tRNA construct (FIG. 5) [1, 3] | capacity to support amber suppression relative to H1 WT tRNA (FIG. 4) ([1]; all tRNA variants under control of the H1 promoter, 1 ug construct + 1 ug GFPY40, lys azide 2 mM, 18 hours) | GFP MFI, single copy tRNA, FIG. 7 [1] | GFP MFI, tandem copies of tRNA, FIG. 7 [1] | GFP MFI, FIG. 10 ([1]; three days) | GFP MFI in the presence of lys-azide, FIG. 6 ([2]; 2 mM lys azide) | increase in amber suppression dependent expression of GFP over WT tRNA (FIG. 6) ([2]; 2 mM lys azide) | GFP MFI in the absence of nnAA, FIG. 6 [2] | GFP MFI, FIG. 8 ([1]; three days) | GFP MFI, FIG. 11 [2]
1 | B1 | 89,869 | 410,131.1 | four-fold | support amber suppression, albeit at a lower level than the WT tRNA | 67,489 | 110,941 | 329 | 232,505 | seven-fold | 42,104 | – | –
2 | B2 | 241,901 | 1,004,228.00 | – | – | – | – | 453 | 347,958 | – | 33,452 | 828,503 | 453
3 | B3 | 25,459 | 114,478.1 | – | – | 18,002 | 20,617 | – | 33,781 | – | – | 117,626 | –
4 | B4 | – | – | – | – | – | – | 312 | – | – | – | 106,075 | 312
5 | B5 | – | – | – | – | – | – | – | – | – | – | – | 419
6 | B6 | – | – | – | – | – | – | – | – | – | – | – | 419
